The subject of series [1] is OCCCCO. Kind of series: purified protein, by the assay type. Conditions: Gly-NaOH pH 9.5, 30° C.
Series [2] has as its target T1, alcohol dehydrogenase KpADH mutant M5 (V84I/Y127M; parent SEQ ID No. 1) (Vanderwaltozyma polyspora, UniProt A7TM80, V84I/Y127M).
T1 sequence (A7TM80 1-342 V84I/Y127M): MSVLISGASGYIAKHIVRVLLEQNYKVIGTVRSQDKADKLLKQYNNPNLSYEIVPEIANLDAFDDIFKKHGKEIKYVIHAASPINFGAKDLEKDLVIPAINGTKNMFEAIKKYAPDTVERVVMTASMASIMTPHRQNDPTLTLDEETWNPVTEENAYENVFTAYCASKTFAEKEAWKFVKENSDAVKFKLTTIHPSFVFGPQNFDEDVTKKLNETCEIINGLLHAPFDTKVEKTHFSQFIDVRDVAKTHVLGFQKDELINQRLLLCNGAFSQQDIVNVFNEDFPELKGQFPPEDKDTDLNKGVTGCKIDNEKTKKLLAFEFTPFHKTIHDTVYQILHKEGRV
Nature of the series: Kinetic analysis of KpADH mutant M5 toward diol co-substrates. Conditions: mutant M5 relative to wild-type KpADH. In kind it is biochemical. As for the experimental part:
(§1) the M5 is obtained by mutating valine at position 84 into isoleucine and tyrosine at position 127 into methionine in alcohol dehydrogenase having an original amino acid sequence as set forth in SEQ ID No. 1.
(§2) Changes in absorbance at 340 nm are measured.
(§3) The enzyme activity is calculated using the following formula: Enzyme activity (U)=EW×V×10^3/(6220×I);
(§4) In the formula, EW is the change in absorbance at 340 nm in 1 min; V is the volume of the reaction solution in mL; 6220 is the molar extinction coefficient of NAD(P)H in L/(mol·cm); I is optical distance in cm.
(§5) One unit of activity (U) corresponds to the amount of enzyme required for the catalytic oxidation of 1 μmol NADP^+ per minute under the above conditions.
(§6) Kinetic measurement is conducted according to the enzyme activity assay, with 10 μL of alcohol substrates of different concentrations, 1 mM NADP^+, 10 μL of enzymes of appropriate concentrations, 170 μL of glycine-sodium hydroxide buffer at pH 9.5, with each sample in triplicate. […] The calculation formulas are as follows: […]
(§7) The Vmax and Km values can be calculated from the intercepts of the double reciprocal plot on the X and Y axes;
(§8) The kcat value can be further calculated according to the formula.
(§9) The activity of KpADH under different substrate concentrations and cofactor concentrations was measured, and a double reciprocal plot was made according to the reciprocals of the activity and substrate concentration. The kinetic parameters were calculated.
(§10) The activity of KpADH under different substrate concentrations and cofactor concentrations was measured, and a double reciprocal plots were made according to the reciprocals of the activity and substrate concentration. The kinetic parameters were calculated.

Series [3] addresses alcohol dehydrogenase KpADH, wild type, SEQ ID No. 1 (Vanderwaltozyma polyspora, UniProt A7TM80). Kind of series: Kinetic analysis of wild-type KpADH toward diol co-substrates. In kind it is biochemical. Conditions: 1 mM NADP+, Gly-NaOH pH 9.5, 30° C. As for the experimental part: as §2, §3, §4
One unit of activity (U) corresponds to the amount of enzyme required for the catalytic oxidation of 1 μmol NADP^+ per minute under the above conditions. […]
as §7, §8, §9, §10

For series [4], the target named is T2, alcohol dehydrogenase KpADH mutant M3 (Y127M; parent SEQ ID No. 1) (Vanderwaltozyma polyspora, UniProt A7TM80, Y127M).
T2 sequence (A7TM80 1-342 Y127M): T1 sequence (A7TM80 1-342 V84I/Y127M) with I84V
Kind of series: Kinetic analysis of KpADH mutant M3 toward diol co-substrates. Type of series: biochemical. Conditions: mutant M3 relative to wild-type KpADH. As for the experimental part:
(§11) M3 is obtained by mutating tyrosine at position 127 into methionine in alcohol dehydrogenase having an original amino acid sequence as set forth in SEQ ID No. 1;
as §2, §3, §4, §5, §6, §7, §8, §9, §10

Substrate in series [5]: OCCCCO
Kind of series: purified protein, by the assay type. Conditions: other: wild-type KpADH, 1 mM NADP+, Gly-NaOH pH 9.5, 30° C.

Substrate in series [6]: OCCCCCO
Kind of series: Kinetic analysis of wild-type KpADH toward diol co-substrates. Type of series: biochemical. Conditions: other: wild-type KpADH, 1 mM NADP+, Gly-NaOH pH 9.5, 30° C. As to the method:
as §2, §3, §4, §5, §6, §7, §8, §9, §10

Substrate in series [7]: OCCCCCO
Kind of series: Kinetic analysis of KpADH mutant M4 toward diol co-substrates. In kind it is biochemical. Conditions: other: mutant M4, 1 mM NADP+, Gly-NaOH pH 9.5, 30° C. As to the method:
(§12) M4 is obtained by mutating valine at position 84 into isoleucine and tyrosine at position 127 into cysteine in alcohol dehydrogenase having an original amino acid sequence as set forth in SEQ ID No. 1;
as §2, §3, §4, §5, §6, §7, §8, §9, §10

Substrate in series [8]: OCCCCCCO
Described as above. In kind it is biochemical. Conditions: other: mutant M4, 1 mM NADP+, Gly-NaOH pH 9.5, 30° C. As to the method:
as §12, §2, §3, §4, §5, §6, §7, §8, §9, §10

Substrate in series [9]: OCCCCCO
Kind of series: Kinetic analysis of KpADH mutant M5 toward diol co-substrates. Type of series: biochemical. Conditions: other: mutant M5, 1 mM NADP+, Gly-NaOH pH 9.5, 30° C. As for the experimental part: as §1, §2, §3, §4, §5, §6, §7, §8, §9, §10

Substrate in series [10]: OCCCCCCO
Described as above. Conditions: other: mutant M5, 1 mM NADP+, Gly-NaOH pH 9.5, 30° C. Type of series: biochemical. As to the method: as §1, §2, §3, §4, §5, §6, §7, §8, §9, §10

Substrate in series [11]: OCCCCCO
Nature of the series: Kinetic analysis of KpADH mutant M3 toward diol co-substrates. Conditions: other: mutant M3, 1 mM NADP+, Gly-NaOH pH 9.5, 30° C. Type of series: biochemical. As for the experimental part: as §11, §2, §3, §4, §5, §6, §7, §8, §9, §10

Substrate in series [12]: OCCCCCCO
The description is as above. Type of series: biochemical. Conditions: other: mutant M3, 1 mM NADP+, Gly-NaOH pH 9.5, 30° C. As for the experimental part: as §11, §2, §3, §4, §5, §6, §7, §8, §9, §10

Substrate in series [13]: OCCCCCO
Nature of the series: Kinetic analysis of KpADH mutant M1 toward diol co-substrates. In kind it is biochemical. Conditions: other: mutant M1, 1 mM NADP+, Gly-NaOH pH 9.5, 30° C. As to the method:
(§13) M1 is obtained by mutating valine at position 84 into isoleucine in alcohol dehydrogenase having an original amino acid sequence as set forth in SEQ ID No. 1;
as §2, §3, §4, §5, §6, §7, §8, §9, §10

Substrate in series [14]: OCCCCCCO
Described as above. Type of series: biochemical. Conditions: other: mutant M1, 1 mM NADP+, Gly-NaOH pH 9.5, 30° C. As to the method: as §13, §2, §3, §4, §5, §6, §7, §8, §9, §10

Substrate in series [15]: OCCCCCO
Kind of series: Kinetic analysis of KpADH mutant M2 toward diol co-substrates. Conditions: other: mutant M2, 1 mM NADP+, Gly-NaOH pH 9.5, 30° C. In kind it is biochemical. As to the method:
(§14) M2 is obtained by mutating tyrosine at position 127 into cysteine in alcohol dehydrogenase having an original amino acid sequence as set forth in SEQ ID No. 1;
as §2, §3, §4, §5, §6, §7, §8, §9, §10

Substrate in series [16]: OCCCCCCO
The description is as above. Type of series: biochemical. Conditions: other: mutant M2, 1 mM NADP+, Gly-NaOH pH 9.5, 30° C. As for the experimental part:
as §14, §2, §3, §4, §5, §6, §7, §8, §9, §10

Positions count from the first letter of the chain named. Names and notes keep the numbering of the source.

Consider “alcohol dehydrogenase KpADH mutant M3 (Y127M; parent SEQ ID No. 1) (Vanderwaltozyma polyspora DSM 70294; Y127M)”, for which, in series [1] (other: mutant M3, 1 mM NADP+), the Michaelis constant (Km) was 12.1 ± 0.9 mM, the kcat stood at 0.28 s⁻¹ and the catalytic efficiency (kcat/Km) came out at 23.2 M⁻¹ s⁻¹.
On to `OCCCCCCO` [1,6-hexanediol], for which the “kcat/Km value, times that of wild-type KpADH” value in series [2] is given as 5.3 times. Moreover, in [3], the Michaelis constant (Km) amounted to 18.5 ± 1.5 mM and the turnover number (kcat) was 0.698 ± 0.015 s⁻¹. In addition, the “catalytic efficiency kcat/Km, times that of wild-type KpADH” value in [4] was found to be 2.69 times.
As for `OCCCCCO` [1,5-pentanediol], the “kcat/Km value, times that of wild-type KpADH” value in series [2] was found to be 3.14 times. In series [4], the “catalytic efficiency kcat/Km, times that of wild-type KpADH” value was 4.36 times.
Regarding “alcohol dehydrogenase KpADH mutant M4 (V84I/Y127C; parent SEQ ID No. 1) (Vanderwaltozyma polyspora DSM 70294; V84I/Y127C)”, in series [1] (other: mutant M4, 1 mM NADP+), the Michaelis-Menten constant (Km) worked out at 30.4 ± 1.3 mM, the kcat came to 0.652 s⁻¹ and the kcat/Km came to 21.4 M⁻¹ s⁻¹.
As for “alcohol dehydrogenase KpADH mutant M5 (V84I/Y127M; parent SEQ ID No. 1) (Vanderwaltozyma polyspora DSM 70294; V84I/Y127M)”, in [1] (other: mutant M5, 1 mM NADP+), the Km was determined as 11.3 ± 0.8 mM, the kcat was found to be 0.378 s⁻¹ and the kcat/Km is 33.5 M⁻¹ s⁻¹.
On to “alcohol dehydrogenase KpADH mutant M2 (Y127C; parent SEQ ID No. 1) (Vanderwaltozyma polyspora DSM 70294; Y127C)”, for which, in series [1] (other: mutant M2, 1 mM NADP+), the Michaelis constant (Km) is 38.1 ± 1.9 mM, the kcat was 0.463 s⁻¹ and the kcat/Km was 12.2 M⁻¹ s⁻¹.

B1: alcohol dehydrogenase KpADH, wild type, SEQ ID No. 1 (Vanderwaltozyma polyspora DSM 70294) (protein)
chain: T1 sequence (A7TM80 1-342 V84I/Y127M) with I84V, M127Y
With B1, in [5], the Michaelis-Menten constant (Km) amounted to 75.6 ± 0.4 mM, the turnover number (kcat) came out at 0.173 s⁻¹ and the catalytic efficiency (kcat/Km) worked out at 2.28 M⁻¹ s⁻¹. For the same molecule, in series [6], the Km is given as 74.4 ± 2.2 mM, the turnover number (kcat) turned out to be 0.928 ± 0.0167 s⁻¹ and the specificity constant (kcat/Km) came to 12.5 M⁻¹ s⁻¹.

B2: alcohol dehydrogenase KpADH mutant M4 (V84I/Y127C; parent SEQ ID No. 1) (Vanderwaltozyma polyspora DSM 70294; V84I/Y127C) (protein)
chain: T1 sequence (A7TM80 1-342 V84I/Y127M) with M127C
With B2, in [7], the Km was determined as 16.3 ± 0.8 mM, the kcat was 0.413 ± 0.0183 s⁻¹ and the kcat/Km came to 25.35 M⁻¹ s⁻¹. Besides, in series [8], the Km was 12.9 ± 1.3 mM, the kcat was 1.64 ± 0.0417 s⁻¹ and the catalytic efficiency (kcat/Km) came to 127.2 M⁻¹ s⁻¹.

B3: alcohol dehydrogenase KpADH mutant M5 (V84I/Y127M; parent SEQ ID No. 1) (Vanderwaltozyma polyspora DSM 70294; V84I/Y127M) (protein)
chain: T1 sequence (A7TM80 1-342 V84I/Y127M)
For B3, in [9], the Michaelis-Menten constant (Km) is listed as 8.21 ± 0.22 mM, the turnover number (kcat) was found to be 0.322 ± 0.015 s⁻¹ and the catalytic efficiency (kcat/Km) was found to be 39.22 M⁻¹ s⁻¹. Further, in series [10], the Km was determined as 6.52 ± 1.0 mM, the kcat came to 1.25 ± 0.035 s⁻¹ and the kcat/Km came to 200.53 M⁻¹ s⁻¹.

B4: alcohol dehydrogenase KpADH mutant M3 (Y127M; parent SEQ ID No. 1) (Vanderwaltozyma polyspora DSM 70294; Y127M) (protein)
chain: T1 sequence (A7TM80 1-342 V84I/Y127M) with I84V
For B4, in series [11], the Km is reported as 14.3 ± 0.9 mM, the kcat was 0.777 ± 0.0283 s⁻¹ and the catalytic efficiency (kcat/Km) was determined as 54.48 M⁻¹ s⁻¹. Also, in series [12], the Km was found to be 6.48 ± 0.45 mM, the turnover number (kcat) was 0.658 ± 0.0317 s⁻¹ and the catalytic efficiency (kcat/Km) was determined as 101.6 M⁻¹ s⁻¹.

B5: alcohol dehydrogenase KpADH mutant M1 (V84I; parent SEQ ID No. 1) (Vanderwaltozyma polyspora DSM 70294; V84I) (protein)
chain: T1 sequence (A7TM80 1-342 V84I/Y127M) with M127Y
Take B5: in series [13], the Michaelis-Menten constant (Km) is given as 42.5 ± 1.5 mM, the catalytic constant (kcat) turned out to be 0.852 ± 0.013 s⁻¹ and the kcat/Km came out at 20.03 M⁻¹ s⁻¹. Moreover, in [14], the Michaelis constant (Km) is 12.3 ± 0.7 mM, the turnover number (kcat) was 1.08 ± 0.0283 s⁻¹ and the kcat/Km came out at 87.53 M⁻¹ s⁻¹.

B6: alcohol dehydrogenase KpADH mutant M2 (Y127C; parent SEQ ID No. 1) (Vanderwaltozyma polyspora DSM 70294; Y127C) (protein)
chain: T1 sequence (A7TM80 1-342 V84I/Y127M) with I84V, M127C
As to B6, in [15], the Km is listed as 63.5 ± 0.1 mM, the kcat was found to be 0.418 ± 0.015 s⁻¹ and the catalytic efficiency (kcat/Km) stood at 6.6 M⁻¹ s⁻¹. Also, in series [16], the Michaelis-Menten constant (Km) is reported as 31.8 ± 1.7 mM, the catalytic constant (kcat) was 0.603 ± 0.0367 s⁻¹ and the kcat/Km was 18.97 M⁻¹ s⁻¹.

Broadly, the Km is the concentration of substrate that gives half-maximal velocity. Broadly, the kcat is the maximal rate divided by the concentration of active sites. As usually defined, the kcat/Km is the turnover number divided by the Michaelis constant.
